In the assay the target is D-tagatose 3-epimerase from Rhodobacter sphaeroides (Rhodobacter sphaeroides). In words: SEC; Superdex200 10/300 GL, 20 mM Tris-HCl pH 8.0, 100 mM NaCl, 1 mM dithiothreitol; 50 ug of purified RsDTE; six standard protein markers (6.5-158 kDa) for calibration. On the technique in general: SEC sorts molecules by how far they enter the pores of the column.

Usually stoichiometry N stands for the number of molecules, sites or subunits per partner or assembly. “D-tagatose 3-epimerase from Rhodobacter sphaeroides (enzyme)”: the stoichiometry N was found to be 4.

The values are drawn from paper PMC5679380.
